Laboratory results from paper PMC12151148.
One block for each binder: values may come before it.

How the values were obtained:
AGS3-TPR (1–405) (mouse) [1] = experiment: SEC-MALS; called SLS; HELEOS II (Wyatt); 100 μl of purified sample at about 10 μM
AGS3-L (−23–405) (mouse) = experiment: as above
LGN-TPR (1–409) (mouse) = experiment: as above
[2] = target: FL-LGN + Gαi3⋅GDP (mouse | human) (UniProt P08754); experiment: ITC; 25°C; 50 mM Tris (pH 8.0), 100 mM NaCl, 1 mM EDTA; one protein (0.2 mM) injected into another (0.02 mM); one-site binding model
Chain of FL-LGN + Gαi3⋅GDP (mouse | human) (P08754 whole entry, looked up): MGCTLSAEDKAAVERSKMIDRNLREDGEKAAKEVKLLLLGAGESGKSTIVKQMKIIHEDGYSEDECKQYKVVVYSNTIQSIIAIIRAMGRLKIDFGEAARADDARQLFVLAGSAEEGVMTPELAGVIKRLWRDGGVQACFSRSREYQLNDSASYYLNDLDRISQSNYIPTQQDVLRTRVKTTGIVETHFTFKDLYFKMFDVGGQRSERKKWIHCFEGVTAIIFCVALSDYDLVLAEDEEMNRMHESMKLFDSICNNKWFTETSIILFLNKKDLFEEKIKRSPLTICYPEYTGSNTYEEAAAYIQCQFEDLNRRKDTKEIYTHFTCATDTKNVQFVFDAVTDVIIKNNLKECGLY

FL-AGS3 (mouse) = experiment: as above
FL-LGN (mouse) = experiment: as above
[3] = target: FL-AGS3 + Gαi3⋅GDP (mouse | human) (UniProt P08754); experiment: as above
Chain of FL-AGS3 + Gαi3⋅GDP (mouse | human) (P08754 whole entry, looked up): as above

AGS3-TPR (1–405) (mouse) [4] = experiment: ITC; 25°C; 50 mM Tris (pH 8.0), NaCl raised to 300 mM for AGS3-TPR or AGS3-L, 1 mM EDTA; one protein (0.2 mM) injected into another (0.02 mM); one-site binding model
FL-AGS3-L-4E (mouse) = experiment: SEC-MALS; called SLS; HELEOS II (Wyatt); 100 μl of purified sample at about 10 μM
FL-LGN-4E (mouse) = experiment: as above

B2: NuMA (1808–2001) (domain or fragment)
chain: KLDVEEPDSANSSFYSTRSAPASQASLRATSSTQSLARLGSPDYGNSALLSLPGYRPTTRSSARRSQAGVSSGAPPGRNSFYMGTCQDEPEQLDDWNRIAELQQRNRVCPPHLKTCYPLESRPSLSLGTITDEEMKTGDPQETLRRASMQPIQIAEGTGITTRQQRKRVSLEPHQGPGTPESKKATSCFPRPMT
Kd [2]: 2240 nM
Kd (FL-AGS3 (mouse)): 3610 nM
Kd (FL-LGN (mouse)): 3130 nM
Kd [3]: 2280 nM
stoichiometry N (NuMA per FL-AGS3-L-4E (1:1)) (FL-AGS3-L-4E (mouse)): 1
stoichiometry N (NuMA per FL-LGN-4E (2:2)) (FL-LGN-4E (mouse)): 1

Binder: NSFYMGTCQDEPEQLDDWNRIAELQQR (domain or fragment) [NuMA (1886–1912)]
Kd (AGS3-TPR (1–405) (mouse) [4]): 220 nM

More lines, now with the values ahead:

stoichiometry N (NuMA per AGS3-TPR (1:1)) (AGS3-TPR (1–405) (mouse) [1]): 1
stoichiometry N (NuMA per AGS3-L (3:3)) (AGS3-L (−23–405) (mouse)): 1
stoichiometry N (NuMA per LGN-TPR (3:3)) (LGN-TPR (1–409) (mouse)): 1
B1: NuMA (1847–1914) (domain or fragment)
chain: GSPDYGNSALLSLPGYRPTTRSSARRSQAGVSSGAPPGRNSFYMGTCQDEPEQLDDWNRIAELQQRNR

Kd [2]: 2620 nM
Kd (FL-AGS3 (mouse)): 2270 nM
Kd (FL-LGN (mouse)): 3920 nM
Kd [3]: 2290 nM
Kd (AGS3-TPR (1–405) (mouse) [4]): 290 nM
Binder: WGLWGAQESRRLCCVGPDRCGQALLQIGINMMALPGGRHLDSVPLQEQR (domain or fragment) [Insc (18–66)]
